The experiment addresses SARS-CoV-2 Spike S1, 6x His-tagged recombinant protein (16-685 aa, YP_009724390.1) (SARS-CoV-2, UniProt P0DTC2 16-685). Briefly: ELISA.

Here are results for 1 molecule from paper PMC8501228 (Cell Reports, 2021).

B1: galectin-8 (LGALS8) recombinant protein (1-317 aa, AAF19370.1) (natural protein)
chain: MMLSLNNLQNIIYNPVIPFVGTIPDQLDPGTLIVIRGHVPSDADRFQVDLQNGSSMKPRADVAFHFNPRFKRAGCIVCNTLINEKWGREEITYDTPFKREKSFEIVIMVLKDKFQVAVNGKHTLLYGHRIGPEKIDTLGIYGKVNIHSIGFSFSSDLQSTQASSLELTEISRENVPKSGTPQLRLPFAARLNTPMGPGRTVVVKGEVNANAKSFNVDLLAGKSKDIALHLNPRLNIKAFVRNSFLQESWGEEERNITSFPFSPGMYFEMIIYCDVREFKVAVNGVHSLEYKHRFKELSSIDTLEINGDIHLLEVRSW
Turning to B1, the binding result is “binds”.
